Experimental data from patent publication US20250092148A1 (Kyowa Kirin, published 2025).

T1: human CD131 R221A (human, UniProt P32927 17-897)
T1 construct: whole, on cells; also called R221 Ala substitution
T1 sequence (looked up): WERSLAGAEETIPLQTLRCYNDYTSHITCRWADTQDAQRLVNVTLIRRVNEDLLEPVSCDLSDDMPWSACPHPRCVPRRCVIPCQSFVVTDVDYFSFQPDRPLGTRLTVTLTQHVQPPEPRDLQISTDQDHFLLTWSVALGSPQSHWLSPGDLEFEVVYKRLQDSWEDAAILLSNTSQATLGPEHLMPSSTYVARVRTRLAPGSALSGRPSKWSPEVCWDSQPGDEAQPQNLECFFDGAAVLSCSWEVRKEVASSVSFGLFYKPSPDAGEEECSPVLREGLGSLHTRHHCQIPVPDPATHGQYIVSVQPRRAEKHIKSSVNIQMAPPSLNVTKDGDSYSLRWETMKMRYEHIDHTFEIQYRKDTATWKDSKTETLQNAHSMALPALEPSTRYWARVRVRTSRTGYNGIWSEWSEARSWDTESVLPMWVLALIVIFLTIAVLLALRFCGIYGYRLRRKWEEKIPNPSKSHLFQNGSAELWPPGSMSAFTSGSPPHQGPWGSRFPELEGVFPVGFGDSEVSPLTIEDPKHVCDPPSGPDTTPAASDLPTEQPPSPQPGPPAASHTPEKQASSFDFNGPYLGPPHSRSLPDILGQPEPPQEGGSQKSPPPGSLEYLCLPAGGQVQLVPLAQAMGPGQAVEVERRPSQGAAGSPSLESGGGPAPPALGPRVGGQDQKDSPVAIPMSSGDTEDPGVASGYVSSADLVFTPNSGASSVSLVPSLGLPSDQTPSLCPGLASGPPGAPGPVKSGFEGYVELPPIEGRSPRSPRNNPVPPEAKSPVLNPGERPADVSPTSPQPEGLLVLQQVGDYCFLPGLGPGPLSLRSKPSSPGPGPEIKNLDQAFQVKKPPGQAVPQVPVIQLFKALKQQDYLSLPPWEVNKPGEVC

T2: human CD116 D300A (human, UniProt P15509 23-400)
T2 construct: whole, on cells
T2 sequence (looked up): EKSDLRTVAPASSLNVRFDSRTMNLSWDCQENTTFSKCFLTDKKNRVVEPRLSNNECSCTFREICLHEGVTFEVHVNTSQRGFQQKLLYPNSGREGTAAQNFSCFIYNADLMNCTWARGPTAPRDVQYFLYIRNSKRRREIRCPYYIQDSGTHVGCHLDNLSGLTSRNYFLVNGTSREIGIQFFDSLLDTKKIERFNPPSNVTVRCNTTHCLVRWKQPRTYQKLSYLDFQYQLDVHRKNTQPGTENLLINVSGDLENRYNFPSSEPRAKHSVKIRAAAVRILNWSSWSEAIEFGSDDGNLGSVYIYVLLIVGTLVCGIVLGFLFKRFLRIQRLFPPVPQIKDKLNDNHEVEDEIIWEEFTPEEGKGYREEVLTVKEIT

T3: human CD116 T187A (human, UniProt P15509 23-400)
T3 construct: whole, on cells
T3 sequence (looked up): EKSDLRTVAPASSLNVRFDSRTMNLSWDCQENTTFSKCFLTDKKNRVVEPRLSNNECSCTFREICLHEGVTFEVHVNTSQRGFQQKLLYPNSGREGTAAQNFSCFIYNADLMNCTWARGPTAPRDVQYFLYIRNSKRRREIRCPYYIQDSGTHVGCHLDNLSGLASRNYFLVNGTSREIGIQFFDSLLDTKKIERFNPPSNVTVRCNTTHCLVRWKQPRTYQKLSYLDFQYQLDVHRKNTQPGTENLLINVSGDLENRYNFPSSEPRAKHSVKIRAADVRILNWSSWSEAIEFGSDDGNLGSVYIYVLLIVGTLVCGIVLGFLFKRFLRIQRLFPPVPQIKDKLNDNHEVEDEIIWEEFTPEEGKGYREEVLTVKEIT

T4: human CD116 K158A (human, UniProt P15509 23-400)
T4 construct: whole, on cells
T4 sequence (looked up): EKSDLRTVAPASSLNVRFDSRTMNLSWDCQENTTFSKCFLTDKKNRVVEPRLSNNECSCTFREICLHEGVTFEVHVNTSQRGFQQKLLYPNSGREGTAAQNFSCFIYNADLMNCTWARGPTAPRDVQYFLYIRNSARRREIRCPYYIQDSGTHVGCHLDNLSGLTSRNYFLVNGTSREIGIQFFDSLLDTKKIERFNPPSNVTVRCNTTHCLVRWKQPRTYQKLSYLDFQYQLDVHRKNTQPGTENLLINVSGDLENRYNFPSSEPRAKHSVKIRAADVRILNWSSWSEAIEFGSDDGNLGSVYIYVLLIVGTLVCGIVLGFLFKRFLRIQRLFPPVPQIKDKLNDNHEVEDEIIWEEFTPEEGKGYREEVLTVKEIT

T5: human CD116 R302A (human, UniProt P15509 23-400)
T5 construct: whole, on cells
T5 sequence (looked up): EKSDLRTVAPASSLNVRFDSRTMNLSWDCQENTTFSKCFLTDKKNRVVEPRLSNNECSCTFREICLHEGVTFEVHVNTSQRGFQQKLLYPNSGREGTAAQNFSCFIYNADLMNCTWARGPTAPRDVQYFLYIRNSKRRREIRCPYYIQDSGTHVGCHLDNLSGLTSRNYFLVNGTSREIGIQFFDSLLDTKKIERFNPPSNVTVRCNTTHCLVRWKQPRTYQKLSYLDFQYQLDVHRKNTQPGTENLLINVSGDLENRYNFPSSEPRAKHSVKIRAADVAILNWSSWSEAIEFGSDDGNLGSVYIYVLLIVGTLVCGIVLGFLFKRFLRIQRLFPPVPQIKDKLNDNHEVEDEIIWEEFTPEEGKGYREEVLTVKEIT


Tests used:
human CD131 R221A = target: T1, human CD131 R221A; assay: flow cytometry, Fab on HEK-293T cells expressing the mutant; labels of this column stand one row too low, mutant assigned after shifting them up (text: R221 is an epitope residue)
human CD116 D300A = target: T2, human CD116 D300A; assay: flow cytometry, Fab 0.25 µg/mL on HEK-293T cells expressing the mutant
human CD116 T187A = target: T3, human CD116 T187A; assay: as above
human CD116 K158A = target: T4, human CD116 K158A; assay: as above
human CD116 R302A = target: T5, human CD116 R302A; assay: as above

Binder | Binding Reactivity (% WT) (human CD131 R221A) | Binding Reactivity (% WT) (human CD116 D300A) | Binding Reactivity (% WT) (human CD116 T187A) | Binding Reactivity (% WT) (human CD116 K158A) | Binding Reactivity (% WT) (human CD116 R302A)
anti-CD131 antibody 131-B2, Fab (Fab, V domains shown, Fab made from the antibody by an enzyme treatment) VH: QVQLVQSGAEVKEPGASVKISCKASGYTFTNDYMHWVRQAPGQGLEWMGIINPTGGGTSYAQKFRGRVTMTRDTSTSTVYMELSSLRSEDTAVFYCARERYYGSGTYFNIGLWYFDLWGRGTLVTVSS VL: not shown | 38 % WT | – | – | – | –
anti-CD116 antibody 116-408, Fab (Fab, V domains shown) VH: EVQLVQSGAEVKKPGASVKVSCKVSGYTLTDLSMHWVRQAPGKGLEWMGGFDPEDGERIYAQKFQGRVTMTEDTSTDTAYMELSSLRSEDTAVYYCATGLFYYYYGMDVWGQGTMVTVSS VL: not shown | – | 84.8 % WT | 16.2 % WT | 35.2 % WT | 93.8 % WT
